Results reported in US20250152627A1, “COMPOSITIONS AND METHODS FOR ENHANCING IMMUNE CELL FUNCTION USING MODIFIED CELLS WITH GLYCOCALYX EDITING ENZYMES” (Cornell University, priority 2021, published 2025).

Columns and labels:
1E7 cells = experiment: NK cell cytotoxicity assay against 1E7 cells; type: cell-based; conditions: 1E7 target cells; NK cell to target cell ratio 5:1 or 10:1
Description: Target MCF10A cells were fluorescently labeled by incubation with 1 M CellTracker Green CMFDA Dye (Invitrogen) in MCF10A growth media for 10 minutes. 3×10^4 labeled target cells were suspended with varying ratios of NK-92 effector cells in 200 μL of growth media of target cell line in absent of IL-2 and cocultured in an ultra-low attachment U-bottom 96-well plate (Corning) for 4 hours at 37° C. in 5% C02. For all StcE-treated NK cell experiment, unless otherwise indicated, NK cells were incubated with 100 nM StcE at 37° C. for 1 hour. Cells were thoroughly washed to remove StcE and coculture with target cells. After 4 hours, propidium iodide (PI; 20 μg/mL, Sigma) was added to each well for 10 minutes and washed with 0.5% BSA PBS. […] NK cell cytotoxicity was evaluated by flow cytometry as previously described^16,81. At least 1×10^4 target cells were analyzed after electronic gating on CellTracker Green. Percent cytotoxicity was calculated as 100×(experimental % dead−spontaneous % dead)/(100−spontaneous % dead), where experimental % dead was the percentage of PI positive target cells in NK cocultures and spontaneous % dead was the percentage of PI positive control target cells cultured in the absence of effector cells.

NK-92 cells = experiment: Flow cytometry of mucin levels on NK-92 cells after StcE incubation; type: cell-based; conditions: 100 nM recombinant enzyme
Description: FIG. 11. StcE mucinase effectively remove cell-surface mucin on 1E7 clone and NK cell. (A) Representative confocal images of Muc1-GFP expressing 1E7 cells with and without treatment with 100 nM StcE, StcE ΔX409, or StcE-EE Zip; Alexa Fluor 647 conjugated to GFP nanobody is used to probe cell-surface Muc1-GFP constructs. (Scale bar, 10 μm). (B) Quantification of mean fluorescence intensity of Muc1-GFP and cell-surface Muc1-GFP probed with GFP nanobody in 1E7 cells treated with the indicated concentration of StcE mucinase; results are shown for induction of Muc1-GFP at 100 ng/ml and 1000 ng/ml doxycycline. (C) Cytotoxicity of NK-92 cells against 1E7 cells treated with control buffer, 100 nM StcE mucinase, or 5,000 U/mL PNGase F for 1 hour; Muc1-GFP induction is at the indicated doxycycline concentration (1,100, and 1,000 ng/ml); NK cell to target cell ratio is 5:1. (D) Flow cytometry analysis of mucin levels on NK-92 cells following incubation with control buffer or 100 nM recombinant StcE or StcE ΔX409; StcE surface level after incubation probed with anti His-tag antibody and cell-surface mucin level probed with catalytically dead StcE E447D conjugated to Cy5. Statistical significance is given by ns—not significant, *P≤0.05, **P≤0.01, ***P≤0.001, ****P≤0.0001. Results are a representative dataset from 3 independent replicates. […]

B1: StcE-ΔX409: StcE with a deleted C-terminal X409 lectin domain; NK cells treated with it: StcE-ΔX409 NK (protein)
chain: ADNNSAIYFNTSQPINDLQGSLAAEVKFAQSQILPAHPKEGDSQPHLTSLRKSLLLVRPVKADDKTPVQVEARDDNNKILGTLTLYPPSSLPDTIYHLDGVPEGGIDFTPHNGTKKIINTVAEVNKLSDASGSSIHSHLTNNALVEIHTANGRWVRDIYLPQGPDLEGKMVRFVSSAGYSSTVFYGDRKVTLSVGNTLLFKYVNGQWFRSGELENNRITYAQHIWSAELPAHWIVPGLNLVIKQGNLSGRLNDIKIGAPGELLLHTIDIGMLTTPRDRFDFAKDKEAHREYFQTIPVSRMIVNNYAPLHLKEVMLPTGELLTDMDPGNGGWHSGTMRQRIGKELVSHGIDNANYGLNSTAGLGENSHPYVVAQLAAHNSRGNYANGIQVHGGSGGGGIVTLDSTLGNEFSHEVGHNYGLGHYVDGFKGSVHRSAENNNSTWGWDGDKKRFIPNFYPSQTNEKSCLNNQCQEPFDGHKFGFDAMAGGSPFSAANRFTMYTPNSSAIIQRFFENKAVFDSRSSTGFSKWNADTQEMEPYEHTIDRAEQITASVNELSESKMAELMAEYAVVKVHMWNGNWTRNIYIPTASADNRGSILTINHEAGYNSYLFINGDEKVVSQGYKKSFVSDGQFWKERDVVDTREARKPEQFGVPVTTLVGYYDPEGTLSSYIYPAMYGAYGFTYSDDSQNLSDNDCQLQVDTKEGQLRFRLANHRANNTVMNKFHINVPTESQPTQATLVCNNKILDTKSLTPAPEGLTYTVN
For B1, the “cytotoxicity of enzyme-equipped or enzyme-treated NK cells compared to unmodified NK-92 cells” value (1E7 cells) was “not significantly enhanced” and the “trimming of mucin-domain containing proteins on NK-92 cells” value (NK-92 cells) was “trimmed similarly”.
